From patent US9845340B2, “Peptides that specifically bind HGF receptor (cMet) and uses thereof” (Dyax Corp., priority 2003, dated 2017)

Columns and labels:
[1] = molecular target: T1, 3T3 cells that over-express human cMet (Homo sapiens, UniProt P08581); experiment: Whole cell ELISA of peptide-displaying phage; assay type: cell-based; details: phage isolate; 3T3 cells expressing human cMet vs. non-expressing 3T3 cells
T1 construct: expressed in transfected cells; host or cells: 3T3 cells
Procedure, shortened: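 Phage displaying peptides, pre-blocked 1 h at 37 °C, incubated 1 h at RT on glutaraldehyde-fixed (0.1%, 12 min, 37 °C) cMet-overexpressing 3T3 cells (10^5 per well). Binding read out by HRP anti-M13 antibody after PBST washing.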

cMet-Fc fusion protein = cMet-Fc fusion protein (Homo sapiens, UniProt P08581); experiment: Protein phage ELISA: peptide-displaying phage binding to soluble cMet-Fc versus TRAIL-Fc; details: phage isolate; cMet-Fc vs. TRAIL-Fc
cMet-Fc fusion protein, sequence (P08581 25-307 limits assumed): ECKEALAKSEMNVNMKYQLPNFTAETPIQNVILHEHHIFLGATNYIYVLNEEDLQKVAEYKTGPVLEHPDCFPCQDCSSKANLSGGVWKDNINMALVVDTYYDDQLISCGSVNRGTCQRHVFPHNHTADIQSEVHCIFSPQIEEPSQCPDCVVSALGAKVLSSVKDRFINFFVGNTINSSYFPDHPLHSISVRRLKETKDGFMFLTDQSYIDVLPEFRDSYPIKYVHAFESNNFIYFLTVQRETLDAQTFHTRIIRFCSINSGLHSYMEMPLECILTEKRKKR
cMet-Fc fusion protein, sequence (P08581 with tags, fused parts or gaps limits assumed): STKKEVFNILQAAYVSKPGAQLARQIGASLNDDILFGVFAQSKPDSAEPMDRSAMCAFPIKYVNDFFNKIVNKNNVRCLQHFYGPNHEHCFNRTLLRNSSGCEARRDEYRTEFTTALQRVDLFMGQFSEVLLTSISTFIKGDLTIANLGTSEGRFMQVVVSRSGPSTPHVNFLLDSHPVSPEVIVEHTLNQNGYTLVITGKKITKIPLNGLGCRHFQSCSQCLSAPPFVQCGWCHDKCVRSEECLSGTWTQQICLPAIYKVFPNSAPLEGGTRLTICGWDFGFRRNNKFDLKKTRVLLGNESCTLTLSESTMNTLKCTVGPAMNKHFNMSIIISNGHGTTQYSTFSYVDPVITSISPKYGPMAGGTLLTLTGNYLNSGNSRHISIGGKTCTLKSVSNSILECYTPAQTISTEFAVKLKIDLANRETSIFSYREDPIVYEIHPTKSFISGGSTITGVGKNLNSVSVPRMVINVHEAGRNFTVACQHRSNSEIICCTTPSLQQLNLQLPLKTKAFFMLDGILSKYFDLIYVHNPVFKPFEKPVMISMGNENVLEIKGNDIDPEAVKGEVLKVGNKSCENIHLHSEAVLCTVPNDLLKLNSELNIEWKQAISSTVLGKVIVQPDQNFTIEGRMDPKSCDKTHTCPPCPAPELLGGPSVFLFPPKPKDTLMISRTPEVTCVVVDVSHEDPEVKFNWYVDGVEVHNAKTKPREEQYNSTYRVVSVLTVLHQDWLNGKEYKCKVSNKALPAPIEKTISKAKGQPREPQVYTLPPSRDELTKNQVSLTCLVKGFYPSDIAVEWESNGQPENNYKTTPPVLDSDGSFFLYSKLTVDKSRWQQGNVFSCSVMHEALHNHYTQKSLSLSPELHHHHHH
Procedure, shortened: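 Phage displaying selected peptides were incubated 2 h at room temperature on wells coated with 0.5 μg/mL cMet-Fc, with TRAIL-Fc coating as the unrelated-Fc specificity control.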

T1 sequence (P08581 25-1390): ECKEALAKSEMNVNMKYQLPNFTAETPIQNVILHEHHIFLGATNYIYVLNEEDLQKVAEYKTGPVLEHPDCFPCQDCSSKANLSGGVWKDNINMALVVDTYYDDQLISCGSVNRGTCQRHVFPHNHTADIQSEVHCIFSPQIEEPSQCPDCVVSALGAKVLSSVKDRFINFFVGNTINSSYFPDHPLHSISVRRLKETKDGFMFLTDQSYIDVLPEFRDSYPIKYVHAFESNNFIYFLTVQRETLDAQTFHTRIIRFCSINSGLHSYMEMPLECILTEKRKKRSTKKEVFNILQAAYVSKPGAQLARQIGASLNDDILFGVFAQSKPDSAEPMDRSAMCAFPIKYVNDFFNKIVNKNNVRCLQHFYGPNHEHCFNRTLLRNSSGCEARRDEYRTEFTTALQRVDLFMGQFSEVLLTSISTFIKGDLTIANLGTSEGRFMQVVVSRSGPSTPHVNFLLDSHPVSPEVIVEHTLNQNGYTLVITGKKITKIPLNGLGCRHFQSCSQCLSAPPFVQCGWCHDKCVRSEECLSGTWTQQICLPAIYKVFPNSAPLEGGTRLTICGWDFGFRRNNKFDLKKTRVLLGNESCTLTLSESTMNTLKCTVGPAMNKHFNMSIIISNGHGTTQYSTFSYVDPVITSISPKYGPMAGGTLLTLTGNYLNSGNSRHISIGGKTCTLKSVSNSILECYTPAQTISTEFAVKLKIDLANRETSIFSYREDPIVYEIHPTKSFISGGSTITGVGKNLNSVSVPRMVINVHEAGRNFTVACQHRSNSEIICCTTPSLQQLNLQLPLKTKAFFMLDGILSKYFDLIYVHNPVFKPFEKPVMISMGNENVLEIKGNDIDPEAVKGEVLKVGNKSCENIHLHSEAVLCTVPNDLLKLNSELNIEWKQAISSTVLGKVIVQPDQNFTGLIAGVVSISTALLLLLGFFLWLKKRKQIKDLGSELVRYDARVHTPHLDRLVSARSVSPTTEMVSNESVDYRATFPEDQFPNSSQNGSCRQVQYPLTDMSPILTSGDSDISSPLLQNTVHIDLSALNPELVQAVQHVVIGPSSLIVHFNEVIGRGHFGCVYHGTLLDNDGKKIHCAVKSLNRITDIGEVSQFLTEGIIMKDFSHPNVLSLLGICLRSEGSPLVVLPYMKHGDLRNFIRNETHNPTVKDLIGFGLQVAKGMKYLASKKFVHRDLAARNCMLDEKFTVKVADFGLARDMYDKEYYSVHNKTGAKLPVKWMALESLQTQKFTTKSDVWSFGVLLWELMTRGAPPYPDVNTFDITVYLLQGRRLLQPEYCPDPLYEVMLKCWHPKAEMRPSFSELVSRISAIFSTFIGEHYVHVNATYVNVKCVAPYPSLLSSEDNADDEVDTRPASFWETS

| Compound | WC ELISA [1] [fold over background] | Protein ELISA (cMet-Fc fusion protein) [fold over background] |
| --- | --- | --- |
| AGNLPCHWNMSVCDHQGT (Synthetically generated cMet-binding peptide sequence) [SEQ ID NO: 034] | 1.30 | 3.3 |
| AGGHWCLELKHLCPPYGT (Synthetically generated cMet-binding peptide sequence) [SEQ ID NO: 044] | 1.23 | 4.1 |
| GSLIFCPYGECMMYAP (Synthetically generated cMet-binding peptide sequence) [SEQ ID NO: 005] | 1.33 | 3.5 |
| AGFWDCGWMMQDCHMHGT (Synthetically generated cMet-binding peptide sequence) [SEQ ID NO: 045] | 1.33 | 3.9 |
| AGWFECEFGFWGCNWLGT (Synthetically generated cMet-binding peptide sequence) [SEQ ID NO: 018] | 1.13 | 3.9 |
| AGAWNCEYPTFICEWQGA (Synthetically generated cMet-binding peptide sequence) [SEQ ID NO: 012] | 1.27 | 4.5 |
| AGQFKCAGPPSFACWMTGT (Synthetically generated cMet-binding peptide sequence) [SEQ ID NO: 050] | 1.43 | 14.8 |
| CC(=O)N[C@@H](C)C(=O)NCC(=O)N[C@@H](Cc1ccc(O)cc1)C(=O)N[C@H](C(=O)N[C@@H](CO)C(=O)N[C@H]1CSSC[C@@H](C(=O)N[C@H](C(=O)N2CCC[C@H]2C(=O)N[C@@H](Cc2ccc(O)cc2)C(=O)NCC(=O)N[C@H](C(=O)NCC(=O)NCC(=O)NCC(=O)N[C@@H](CCCCNC(=O)c2ccc3c(c2)C(=O)OC32c3ccc(O)cc3Oc3cc(O)ccc32)C(N)=O)[C@@H](C)O)[C@@H](C)O)NC(=O)[C@H](CCC(=O)O)NC(=O)[C@H](Cc2ccccc2)NC(=O)[C@H](CO)NC(=O)[C@@H]2CCCN2C(=O)[C@@H]2CCCN2C(=O)CNC(=O)[C@H](C(C)C)NC1=O)[C@@H](C)O [SEQ ID NO: 059] | 1.43 | 21.2 |
| AGGNWCSFYEELCEWLGT (Synthetically generated cMet-binding peptide sequence) [SEQ ID NO: 043] | 1.37 | 4.2 |
| CC(=O)N[C@@H](C)C(=O)NCC(=O)N[C@@H](CO)C(=O)N[C@@H](Cc1ccccc1)C(=O)N[C@@H](C)C(=O)N[C@H]1CSSC[C@@H](C(=O)N[C@H](C(=O)N[C@@H](CCC(=O)O)C(=O)N[C@@H](Cc2ccccc2)C(=O)NCC(=O)N[C@H](C(=O)NCC(=O)NCC(=O)NCC(=O)N[C@@H](CCCCNC(=O)c2ccc3c(c2)C(=O)OC32c3ccc(O)cc3Oc3cc(O)ccc32)C(N)=O)[C@@H](C)O)C(C)C)NC(=O)[C@H](C)NC(=O)[C@H](Cc2ccccc2)NC(=O)[C@H]([C@@H](C)O)NC(=O)[C@@H]2CCCN2C(=O)[C@@H]2CCCN2C(=O)CNC(=O)[C@H](CCCCN)NC1=O [SEQ ID NO: 053] | 1.27 | 18.1 |
| AGKTVCQKWESVCSGMGT (Synthetically generated cMet-binding peptide sequence) [SEQ ID NO: 038] | 1.30 | 3.1 |
| AGPYSCHSESHDCKLMGT (Synthetically generated cMet-binding peptide sequence) [SEQ ID NO: 032] | 1.27 | 3.2 |

Now from value to compound:

| WC ELISA [1] [fold over background] | Protein ELISA (cMet-Fc fusion protein) [fold over background] | Compound |
| --- | --- | --- |
| 1.33 | 6.3 | CC[C@H](C)[C@H](NC(=O)[C@H](CC(=O)O)NC(=O)CNC(=O)[C@H](C)NC(C)=O)C(=O)N[C@H](C(=O)N[C@H]1CSSC[C@@H](C(=O)N[C@@H](Cc2c[nH]c3ccccc23)C(=O)N[C@@H](CO)C(=O)N[C@@H](Cc2c[nH]c3ccccc23)C(=O)NCC(=O)N[C@H](C(=O)NCC(=O)NCC(=O)NCC(=O)N[C@@H](CCCCNC(=O)c2ccc3c(c2)C(=O)OC32c3ccc(O)cc3Oc3cc(O)ccc32)C(N)=O)[C@@H](C)O)NC(=O)[C@H](CCC(=O)O)NC(=O)[C@H](Cc2ccccc2)NC(=O)[C@H](Cc2ccc(O)cc2)NC(=O)[C@@H]2CCCN2C(=O)[C@H](Cc2c[nH]cn2)NC(=O)CNC(=O)[C@H]([C@@H](C)O)NC1=O)C(C)C [SEQ ID NO: 068] |
| 1.30 | 7.7 | GSFAPCGWPSFAIDCIAEAP (Synthetically generated cMet-binding peptide sequence) [SEQ ID NO: 367] |
| 1.20 | 8.4 | GSEFECTGWPEFRCYEYAP (Synthetically generated cMet-binding peptide sequence) [SEQ ID NO: 100] |
| 1.40 | 3.6 | GSMNMCDTTDEISPTCHPSAP (Synthetically generated cMet-binding peptide sequence) [SEQ ID NO: 378] |
| 1.27 | 9.7 | AGEIFCVGPPTFTCMWTGT (Synthetically generated cMet-binding peptide sequence) [SEQ ID NO: 096] |
| 1.23 | 3.1 | AQLFQYLWHDDPQGAFFQLSMW (Synthetically generated cMet-binding peptide sequence) [SEQ ID NO: 483] |
| 1.23 | 12.3 | AGMTLCAGPPTFECYEVGT (Synthetically generated cMet-binding peptide sequence) [SEQ ID NO: 092] |
| 1.23 | 3.7 | AQMGHHWDVQWDYKLFHVARGD (Synthetically generated cMet-binding peptide sequence) [SEQ ID NO: 473] |
| 1.23 | 13.0 | AGTMYCLGPPTFICQQYGT (Synthetically generated cMet-binding peptide sequence) [SEQ ID NO: 084] |
| 1.40 | 3.8 | AQEWQTWTWNMIEVISENKTP (Synthetically generated cMet-binding peptide sequence) [SEQ ID NO: 468] |
| 1.23 | 8.9 | CC[C@H](C)[C@H](NC(=O)[C@H](Cc1ccccc1)NC(=O)[C@H](CCC(N)=O)NC(=O)[C@H](Cc1ccccc1)NC(=O)[C@@H](NC(=O)[C@H](Cc1c[nH]c2ccccc12)NC(=O)[C@@H](NC(=O)[C@H](CC(=O)O)NC(=O)[C@H](Cc1ccc(O)cc1)NC(=O)[C@H](CCC(N)=O)NC(=O)[C@H](C)NC(C)=O)[C@@H](C)O)C(C)C)C(=O)N[C@@H](Cc1c[nH]cn1)C(=O)N[C@@H](CCC(=O)O)C(=O)N[C@H](C(=O)N1CCC[C@H]1C(=O)NCC(=O)N[C@@H](CCC(=O)O)C(=O)N[C@@H](CC(C)C)C(=O)N[C@H](C(=O)N[C@@H](C)C(=O)N[C@@H](CCSC)C(=O)N[C@@H](CCC(N)=O)C(=O)NCC(=O)NCC(=O)NCC(=O)N[C@@H](CCCCNC(=O)c1ccc2c(c1)C(=O)OC21c2ccc(O)cc2Oc2cc(O)ccc21)C(N)=O)C(C)C)C(C)C [SEQ ID NO: 454] |
| 1.40 | 4.7 | CC[C@H](C)[C@H](NC(=O)[C@H](Cc1c[nH]c2ccccc12)NC(=O)[C@H](CC(N)=O)NC(=O)CNC(=O)[C@H](C)NC(C)=O)C(=O)N[C@H]1CSSC[C@@H](C(=O)N[C@@H](Cc2c[nH]c3ccccc23)C(=O)N[C@@H](Cc2ccc(O)cc2)C(=O)N[C@@H](Cc2c[nH]cn2)C(=O)NCC(=O)N[C@H](C(=O)NCC(=O)NCC(=O)NCC(=O)N[C@@H](CCCCNC(=O)c2ccc3c(c2)C(=O)OC32c3ccc(O)cc3Oc3cc(O)ccc32)C(N)=O)[C@@H](C)O)NC(=O)CNC(=O)[C@H](Cc2ccccc2)NC(=O)[C@H](CO)NC(=O)[C@@H]2CCCN2C(=O)[C@@H]2CCCN2C(=O)CNC(=O)[C@H]([C@@H](C)O)NC1=O [SEQ ID NO: 078] |
| 1.23 | 3.4 | AQAEWVITSEEFYWKMADFGPP (Synthetically generated cMet-binding peptide sequence) [SEQ ID NO: 478] |
| 1.27 | 4.5 | CC[C@H](C)[C@H](NC(=O)[C@H](Cc1c[nH]cn1)NC(=O)[C@H](CC(C)C)NC(=O)[C@@H](NC(=O)[C@H](CCSC)NC(=O)[C@H](CCSC)NC(=O)[C@H](CCC(N)=O)NC(=O)CNC(=O)[C@H](Cc1ccc(O)cc1)NC(=O)[C@H](CCC(N)=O)NC(=O)[C@H](Cc1c[nH]cn1)NC(=O)[C@H](CCC(N)=O)NC(=O)[C@H](C)NC(C)=O)C(C)C)C(=O)N[C@@H](CCC(N)=O)C(=O)N[C@@H](Cc1ccc(O)cc1)C(=O)N[C@@H](CC(=O)O)C(=O)N[C@@H](CCSC)C(=O)NCC(=O)N[C@@H](CCC(=O)O)C(=O)N[C@@H](Cc1ccccc1)C(=O)N[C@H](C(=O)N1CCC[C@H]1C(=O)NCC(=O)NCC(=O)NCC(=O)N[C@@H](CCCCNC(=O)c1ccc2c(c1)C(=O)OC21c2ccc(O)cc2Oc2cc(O)ccc21)C(N)=O)[C@@H](C)CC [SEQ ID NO: 462] |
